Data as given in patent US20170224778A1, “COMPOSITIONS AND METHODS THAT TARGET REGULATION OF BREATHING” (The Board of Trustees of the Leland Stanford Junior …, priority 2016, published 2017).

Key:
[1] = molecular target: gastrin-releasing peptide receptor (GRPR) on rat preBotC neurons (rat) (UniProt P52500)
[2] = molecular target: gastrin-releasing peptide receptor (GRPR) on rat preBotC neurons (rat) (UniProt P52500); remark: listed apart in the source
[3] = molecular target: neuromedin B receptor (NMBR) on rat preBotC neurons (rat) (UniProt P24053)
[4] = molecular target: gastrin-releasing peptide receptor (GRPR) on rat preBotC neurons (rat) (UniProt P52500); remark: listed apart in the source
[5] = molecular target: neuromedin B receptor (NMBR) on rat preBotC neurons (rat) (UniProt P24053); remark: listed apart in the source
[6] = molecular target: gastrin-releasing peptide receptor (GRPR) on mouse preBotC neurons (mouse) (UniProt P21729)
NMBR [7] = molecular target: T1, NMBR (Rattus norvegicus, UniProt P24053); assay: Sighing and breathing of urethane-anesthetized rats after bilateral preBötC injection (NMB pathway); type: in vivo; settings: 3 μM into preBötC
T1 construct: from tissue; host or cells: preBötC of the ventral medulla of living anesthetized Sprague Dawley rats
T1 sequence (P24053 1-390): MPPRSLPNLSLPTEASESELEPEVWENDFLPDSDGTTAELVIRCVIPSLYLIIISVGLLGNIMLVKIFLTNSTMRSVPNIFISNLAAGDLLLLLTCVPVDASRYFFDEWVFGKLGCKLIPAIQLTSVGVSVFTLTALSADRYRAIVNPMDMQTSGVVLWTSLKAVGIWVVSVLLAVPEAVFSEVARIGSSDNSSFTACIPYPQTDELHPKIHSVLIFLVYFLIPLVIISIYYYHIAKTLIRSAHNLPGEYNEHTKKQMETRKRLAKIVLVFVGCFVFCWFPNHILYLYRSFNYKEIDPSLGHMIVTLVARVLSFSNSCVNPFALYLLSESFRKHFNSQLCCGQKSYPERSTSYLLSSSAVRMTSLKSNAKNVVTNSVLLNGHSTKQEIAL
Description: Sigh monitoring and analysis. For awake animals, individual animals were placed in a whole body plethysmography chamber (Buxco) at room temperature (22° C.) in 21% O2 (for normoxia) or 8% O2 (for hypoxic challenge) balanced with N2. Sighs were identified in plethysmography traces by the characteristic biphasic ramp, the augmented flow in the second phase of the inspiratory effort and the prolongation of expiratory time following the event. Sighs were also confirmed by visual monitoring of breathing behavior. Given the high amplitude and distinctive waveform of sighs relative to standard eupneic breaths, sighs were unambiguously identified by both visual and computer-assisted scoring; no difference was detected in direct comparisons between methods or observers so visual scoring was used. Female 8 week old mice (Nmbr^−/−, Grpr^−/−, or C57BL/6 as wild type control) were allowed to acclimate for 10 minutes in the chamber, and then the first fifteen recorded sighs were used to calculate the sigh rate. […] Rats were allowed to acclimate in the chamber for ˜1 hr, and then baseline sigh rate and respiratory frequency were calculated for the next 2 hrs. For hypoxic (8% O2) challenge, analysis was continued for 30 minutes under the hypoxic condition. For anesthetized rats, the trachea was cannulated and connected to a pneumotachograph (GM Instruments) to record airflow. A flow calibration was performed after every experiment along with a calculation of tidal volume (VT) by digital integration. To monitor diaphragm activity, wire electrodes (Cooner Wre) were implanted into the diaphragm and electromyogram (EMG) signal sampled at 2 kHz (Powerlab 16SP; AD Instruments). Signal was rectified and digitally integrated (time constant of 0.1) to obtain a moving average using LabChart Pro 8 (AD Instruments) and Igor Pro 6 (Data Matrix) software. Sighs were identified in the airflow measurements as above and validated by double peaks in the EMG recordings.
PreBötC injection of NMB and GRP agonists and antagonists. […]

NMBR [8] = molecular target: T2, NMBR (Mus musculus, UniProt O54799); assay: Doublets (in vitro sigh signature) in explanted preBötC brain slices, NMB effect; type: cell-based; settings: for doublet frequency increase: neonatal mouse preBötC slices
T2 construct: from tissue; host or cells: 550-μm transverse medullary slices with the preBötC, neonatal C57BL/6 mice (P0-5)
T2 sequence (O54799 1-390): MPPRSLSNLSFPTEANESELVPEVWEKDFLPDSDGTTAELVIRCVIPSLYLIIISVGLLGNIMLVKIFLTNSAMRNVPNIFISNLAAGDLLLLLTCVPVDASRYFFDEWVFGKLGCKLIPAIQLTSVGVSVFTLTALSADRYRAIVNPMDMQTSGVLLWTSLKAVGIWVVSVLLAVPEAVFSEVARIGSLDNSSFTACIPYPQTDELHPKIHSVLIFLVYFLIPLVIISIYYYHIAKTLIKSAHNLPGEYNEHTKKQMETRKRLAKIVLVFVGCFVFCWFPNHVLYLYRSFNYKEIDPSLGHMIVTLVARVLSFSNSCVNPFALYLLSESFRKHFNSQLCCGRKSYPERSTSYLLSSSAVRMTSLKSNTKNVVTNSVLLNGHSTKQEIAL
Description: In vitro slice preparation, recording, and analysis. Rhythmic 550-μm-thick transverse medullary slices containing the preBötC and XII nerve from neonatal C57BL/6 mice (P0-5) were prepared as described previously (Kam et al., 2013). The medullary slice was cut in artificial cerebrospinal fluid (ACSF) containing (in mM): 124 NaCl, 3 KCl, 1.5 CaCl2, 1 MgSO4, 25 NaHCO3, 0.5 NaH2PO4, and 30 D-glucose, equilibrated with 95% O2 and 5% CO2 (4° C., pH=7.4). For recording, extracellular K+ was raised to 9 mM to replace excitatory afferent drive lost in the cutting process. Slices were perfused at 27° C. and 4 ml/min and allowed to equilibrate for 30 minutes. Respiratory activity reflecting suprathreshold action potential (AP) firing from populations of neurons was recorded as XII bursts from either XII nerve roots and as population activity directly from the preBötC using suction electrodes and a MultiClamp 700A or 700B (Molecular Devices, Sunnyvale, Calif., USA), filtered at 2-4 kHz and digitized at 10 kHz. Digitized data were analyzed off-line using custom procedures written for IgorPro (Wavemetrics, Portland, Oreg., USA). Activity was full-wave rectified and digitally integrated with a Paynter filter with a time constant of 20 ms with either custom built electronics or using custom procedures in MATLAB (Mathworks, Natick, Mass., USA). Burst detection and analysis of respiratory-related activity recorded in full-wave rectified XII output or preBötC population recordings were performed using custom software written in IgorPro. Burst parameters were normalized to the mode of the data in the baseline condition. Although there are several proposed definitions of sighs in slice preparations, here we used “doublets” (double-peaked bursts) as the in vitro signature of sighs because, in our preparations, doublets detected both in preBötC neural population activity measurements and cranial nerve XII output recordings shared the increased inspiratory and expiratory duration of sighs. […] All doublets were verified by visual inspection to exclude multipeaked bursts and two bursts that were too far apart. Measured doublet intervals were converted to a calculated per hour doublet rate.

[9] = molecular target: neuromedin B receptor (NMBR) on mouse preBotC neurons (mouse) (UniProt O54799)
[10] = molecular target: neuromedin B receptor (NMBR) on rat preBotC neurons (rat) (UniProt P24053); remark: listed apart in the source

GRPR antagonist RC3095
basal sigh rate after bilateral preBotC injection in anesthetized rats [1]: 50%

bombesin-saporin (saporin conjugated with bombesin)
hypoxia-induced sigh rate (8% O2) five days after injection in rats [2]: 5.1 h⁻¹ | hypoxia-induced sigh rate (8% O2) five days after injection in rats [3]: 5.1 h⁻¹ | basal sigh rate after ablation of receptor-expressing preBotC neurons in rats [4]: 95% | basal sigh rate after ablation of receptor-expressing preBotC neurons in rats [5]: 95%

gastrin releasing peptide (GRP) neuropeptide
doublets (in vitro signature of a sigh) in mouse preBotC slices [6]: 1.7 fold

neuromedin B [NMB]
change in respiratory rate (frequency, f) (NMBR [7]; bilateral NMB injection 100 nl, anesthetized rat): little change | sighing increased (fold) (NMBR [7]; bilateral microinjection 100 nl, anesthetized adult rats, n=5): 6-17 fold | effect on sighing persisted after injection (NMBR [7]; bilateral microinjection 100 nl, effect peaked several minutes after injection): 10 to 15 min | doublet frequency increase (NMBR [8]; 10 nM, p=0.005, n=7): 1.7 fold | doublet frequency increase (NMBR [8]; 30 nM, p=0.003, n=7): 2 fold | overall frequency of bursts and doublets together (NMBR [8]; NMB on preBötC slices, p=0.2, n=7): unchanged | fraction of total events that are doublets (NMBR [8]; preBötC slice, p<0.05, n=7): increasing | interval following a doublet (NMBR [8]; preBötC slice, p<0.05, n=7): decreasing

neuromedin B (NMB) neuropeptide
doublet frequency (in vitro signature of a sigh) in mouse preBotC slices [9]: 2 fold

NMBR antagonist BIM23042
basal sigh rate after bilateral preBotC injection in anesthetized rats [10]: 50%

saporin conjugated with a non-targeted peptide (blank SAP)
basal and hypoxia-induced sigh rate in control rats [2]: 140 h⁻¹ | basal and hypoxia-induced sigh rate in control rats [3]: 140 h⁻¹
